Data taken from PMC9721465, “PFK2/FBPase-2 is a potential target for metabolic engineering in the filamentous fungus Myceliophthora thermophila” (Frontiers in Microbiology, 2022).

What was measured:
[1] = substrate: Nc1ncnc2c1ncn2[C@@H]1O[C@H](COP(=O)(O)OP(=O)(O)OP(=O)(O)O)[C@@H](O)[C@H]1O; assay: PFK2 assay, fru-2,6-P2 quantified by activation of potato PPi-PFK, spectrophotometric; type: biochemical, Thermothelomyces thermophilus; settings: co-substrate F6P
Source text: PFK2 assay, fru-2,6-P2 quantified by activation of potato PPi-PFK, spectrophotometric on PFK2-C

[2] = substrate: O=P(O)(O)OC[C@H]1O[C@@](CO)(OP(=O)(O)O)[C@@H](O)[C@@H]1O; assay: FBPase-2 assay, product/substrate by LC-MS/MS; type: biochemical, Thermothelomyces thermophilus; settings: pH 7, 30 °C, 1 mM ATP, 2 mM MgCl2, 5 mM KPi
Source text: FBPase-2 assay, product/substrate by LC-MS/MS on PFK2-A

Protein | Km [1] [µM] | Km [2] [µM]
PFK2-C (Thermothelomyces thermophilus ATCC 42464) (protein, pET28a expression in E. coli (BL21/Rosetta DE3), His-Trap purified; cDNA-encoded) MPEPLQPSFFHVAASGSDPRPSESACQREDAAVAPQSSSLTLRKLAMSHRMGATASDPSSPTIQAIGDSHHGAETHPLHSVLPSPALTNALKESLRTAGAGQSGPPIGVPNGLHFDSPYSRSISSTAPGSPRIPPVRQNSGSHTPRIRPHATTLNIPGMTRSRASPDGRIPDRDVAAKLVIIMVGLPARGKSYITKKIQRYLSWQQHNTKIFNVGNRRRIAAGMVNPTDASPTNAANGHDVPSQAATILSKGTKGPDIVVEEPTALDLNKGKPVPKMDQSAAFFDPKNEAAAKLREQVALDTLDELLTYLLHQGGAVGILDATNSTIQRRKLLVERIKAREPKLGILFIESVCHDQNLLEANMRLKLFGPDYKDQDPHMALEDFKKRVAAYESAYEPLGKWEEDNDLQYIQMIDVGRKIIQHRLRGFLSGGIVSYLTTFNLSPRQIWITRHGQSEDNRAHRLGGDSELTERGHYYGQALYNFITYKRKEWLIQQKNKIASSNFPPQPGDNTPPYPELFQELDDKNFCVWTSMLKRSIETAEYFEADDDYDVKAWEMLNEMNAGAFEGMTYEEIAEKYPEEFEKRARDKLQYIYPGLGGEGYLQIISRLRDMVREIERITDHVLIIGHRSVCRVLMAYFMDLTRDDIADLDMPLGMLYAIEPKPYGIEFHAYKYNEETFWFDELPNYKPRKTVDRNS | 940 ± 150 | –
PFK2-A (Thermothelomyces thermophilus ATCC 42464) (protein, pET32a expression in E. coli Rosetta (DE3), His-Trap purified; cDNA-encoded) MAPKINGTGVMPEDTRICVVMVGLPARGKSYIAQRAQRYLKWLSIPAKTFNVGNYRRKDAPHPSADFFDTNNAEGERQRRAAANAAVTDMIQWFKTGGVVGILDATNSTKERRKWVLERLSKEGIEVLFVESKCDDEELIMANIRDVKTTSPDYQGQDPEQAALDFRERIRHYEKVYKSINDDNDEDHLTYLKIMNVGKKVFINRIQDYLQSRVVYFLMNLHIRPRSVWLSRHGESEYNLEGRIGGDSLLSHRGEEYARKLPELVRQSVGSDRPLTVWTSTLKRTIATARHLPKHYNQLQWKALDELDAGVCDGLTYQEIADQYPEDFQARDEDKYNYRYRGGESYRDVVIRLEPIIMELERSENILIISHQAVIRCIYAYFMQKPQEESPWVPVPLHTLIKLTPRAYDTLVEKYDAKIKAVSTWRGKGSTAKHEDPTPEGGI | – | 3810 ± 220
